In patent publication US20020160010A1:

Biological target: CD44 variant carrying the epitope coded by exon v6 on human Langerhans cells and dendritic cells (human) (UniProt P16070)

VFF18 (antibody)
binding of cultivated LCs and cytokine-activated DCs to paracortical T-cell zones of lymph node frozen sections: < 66 % inhibition
